Results on one molecule are retold here after patent US20220119507A1 (OHEALTH BIOPHARMACEUTICAL SUZHOU, published 2022).

The target of test [1] is T1, fragment of PTX3 recombinant protein listed as SEQ ID NO:1 (human).
T1 peptide: RPMRLESFS
Kind of test: hybridoma screening.

For test [2], the target named is T2, amino acid sequence listed as SEQ ID NO:11 (203th to 217th amino acid residues of PTX3 recombinant protein) (human).
T2 peptide: RLESFSACIWVKATD
Kind of test: hybridoma screening.

Test [3] deals with T3, fragment of PTX3 recombinant protein listed as SEQ ID NO:10 (human).
T3 peptide: YGTKRNPYEI
Kind of test: hybridoma screening.

Test [4] concerns the target T4, fragment of PTX3 recombinant protein listed as SEQ ID NO:9 (human).
T4 peptide: LFSYGTKRN
Kind of test: hybridoma screening.

The target in test [5] is T5, fragment of PTX3 recombinant protein listed as SEQ ID NO:7 (human).
T5 peptide: VLNKTILFS
Put plainly: hybridoma screening.

Test [6] deals with T6, RI37, fragment of PTX3 recombinant protein listed as SEQ ID NO:12 (200th to 236th amino acid residues) (human).
T6 peptide: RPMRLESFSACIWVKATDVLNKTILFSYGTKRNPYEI
Put plainly: hybridoma screening.

In test [7] the target is T7, fragment of PTX3 recombinant protein listed as SEQ ID NO:6 (human).
T7 peptide: ATDVLNKTI
Put plainly: hybridoma screening.

Test [8] has as its target T8, fragment of PTX3 recombinant protein listed as SEQ ID NO:2 (human).
T8 peptide: RLESFSACI
Put plainly: hybridoma screening.

The target in test [9] is T9, fragment of PTX3 recombinant protein listed as SEQ ID NO:8 (human).
T9 peptide: KTILFSYGT
Kind of test: hybridoma screening.

Test [10] concerns the target T10, fragment of PTX3 recombinant protein listed as SEQ ID NO:3 (human).
T10 peptide: SFSACIWVK
Put plainly: ELISA on coated fragments SEQ ID NOs:1 to 10 (FIG. 4).

Test [11] deals with T11, fragment of PTX3 recombinant protein listed as SEQ ID NO:5 (human).
T11 peptide: WVKATDVLN
The test is described as above.

Test [12] addresses T12, fragment of PTX3 recombinant protein listed as SEQ ID NO:4 (human).
T12 peptide: ACIWVKATD
The test is described as above.

In test [13] the target is PTX3 recombinant protein (undenatured amino acid sequence listed as SEQ ID NO:14) (human, UniProt P26022 19-381). Put plainly: ELISA, PTX3 (SEQ ID NO:14) coated at 10 ug/mL, antibody 0.01 to 1000 ng/mL (FIG. 2). The procedure:
Firstly, 10 μg/mL of PTX3 recombinant protein (representing a undenatured amino acid sequence listed as SEQ ID NO:14, dissolved in pH 7.2 PBS) was coated onto each well of a 96-well cell culture plate (Product No. 9018, Corning Costar), and reacted at 4° C. overnight. Next, the blocking solution (containing 3% BSA in PBS) was added into wells, and blocked for 1 hour under room temperature (i.e. 4° C. to 40° C.). After removing the blocking solution, each well was rinsed with PBS, and then reacted with a primary antibody for 1 hour under room temperature (i.e. 4° C. to 40° C.), in which the primary antibody was PTX3 mAb of EXAMPLE 1 serially diluted in a concentration range of 0.01 ng/mL to 1000 ng/mL. And then, each well was rinsed several times with PBST (i.e. PBS with Tween 20) for removing unconjugated PTX3 mAb, and reacted with secondary antibody under room temperature (i.e. 4° C. to 40° C.), in which the secondary antibody was anti-mouse IgG-HRP. Afterward, TMB was added into each well for reaction over a time period, and then added with 0.1 M of H₂SO₄ solution for 10 minutes to stop the reaction. Subsequently, the absorbance at 450 nm of each well was measured by commercially available ELISA reader, and the results were shown in FIG. 2. Each value was obtained in quadruplicate. […]

Chain of PTX3 recombinant protein (undenatured amino acid sequence listed as SEQ ID NO:14) (P26022 19-381 limits assumed): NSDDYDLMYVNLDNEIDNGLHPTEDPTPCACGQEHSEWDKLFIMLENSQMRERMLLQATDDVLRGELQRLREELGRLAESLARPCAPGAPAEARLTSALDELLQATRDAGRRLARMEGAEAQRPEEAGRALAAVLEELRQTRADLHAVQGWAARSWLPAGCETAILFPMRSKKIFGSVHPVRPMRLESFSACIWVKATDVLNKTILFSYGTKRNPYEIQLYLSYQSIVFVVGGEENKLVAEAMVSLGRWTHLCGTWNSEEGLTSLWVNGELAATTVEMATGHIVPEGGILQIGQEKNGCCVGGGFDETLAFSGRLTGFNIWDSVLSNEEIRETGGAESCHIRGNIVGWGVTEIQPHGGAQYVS

B1: PTX3 monoclonal antibody of EXAMPLE 1 (antibody, V domains shown)
VH: EVQLQQSGAELVKPGASVKLSCTASDFNIKHTYLHWVLQRPEQGLEWIGRIDPANGDTKYDPKFQGKATITADTSSNTAYLHLSSLTSEDTAVYYCARVTTVVGFDYWGQGTTLTVSS
VL: QIVLTQSPAIMSTSLGERVTMTCTASSSVISTYLNWYQQKPGSSPKLWIYSTSNLASGVPARFSGSGSGTSYSLTISSMEAEDAATYFCHQFQRSPLTFGAGTKLELKR
notes: also called PTX3 mAb
Regarding B1, the binding result in test [1], in [2], in test [3], in test [4], in test [5] and in [6] was “binds” throughout. For the same molecule, the binding result in [7], in test [8], in test [9], in test [10], in test [11] and in [12] was “binds” throughout. Besides, the Kd in test [13] worked out at 85 pM.
